Measured values reported in patent publication US20200247889A1 (published 2020).

T1: mouse TREM1 (mouse, UniProt Q9JKE2 21-230)
T1 construct: whole, on cells; also called mTREM1
T1 sequence (looked up): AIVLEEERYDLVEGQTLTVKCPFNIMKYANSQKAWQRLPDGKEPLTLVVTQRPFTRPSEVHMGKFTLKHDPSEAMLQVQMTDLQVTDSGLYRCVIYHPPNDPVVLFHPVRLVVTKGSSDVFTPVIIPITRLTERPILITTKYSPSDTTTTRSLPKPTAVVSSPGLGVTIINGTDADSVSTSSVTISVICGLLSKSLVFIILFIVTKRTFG

T2: cynomolgus TREM1 (cynomolgus, UniProt A0A2K5VHG8 21-233)
T2 construct: whole, on cells; also called cTREM1
T2 sequence: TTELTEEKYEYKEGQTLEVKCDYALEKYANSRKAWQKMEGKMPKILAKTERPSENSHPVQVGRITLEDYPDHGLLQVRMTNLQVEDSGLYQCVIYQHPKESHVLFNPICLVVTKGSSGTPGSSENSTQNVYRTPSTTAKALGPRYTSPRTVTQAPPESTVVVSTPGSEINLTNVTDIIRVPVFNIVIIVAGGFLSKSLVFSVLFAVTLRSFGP


Tests used:
mouse TREM1 [1] = biological target: T1, mouse TREM1; assay: flow cytometry cross-blocking on HEK293 cells over-expressing mouse TREM-1
Procedure: 100,000 HEK293 cells over-expressing mouse TREM-1 were plated in 96 well plates and dead cells were stained with Zombie Near Infrared (Biolegend, San Diego, Calif.). These cells were subsequently incubated with the indicated unconjugated anti-mouse TREM-1 antibodies at saturating concentrations for 15 mins on ice. Following incubation with these antibodies, cells were then stained with the indicated Alexa Fluor 647 conjugated antibodies for 30 mins on ice. The ability of conjugated antibodies to bind in the presence of unconjugated antibodies was assessed by Alexa 647 signal measured by flow cytometry (BD Fortessa X-14, BD Biosciences, San Jose, Calif.).
The sequences denote the linear amino acid stretches that comprise each domain and the numbering is according to UniProt sequence analysis and 3D modelling of mouse TREM1.

mouse TREM1 [2] = biological target: T1, mouse TREM1; assay: flow cytometry on HEK293 cells over-expressing mouse TREM-1
Procedure: 100,000 HEK 293 parental or over-expressing mouse TREM-1 were plated in 96 well plates and dead cells were stained with Zombie Near Infrared (Biolegend, San Diego, Calif.). […] These primary unconjugated antibodies were detected with Alexa Fluor 647 conjugated anti-mouse Fcγ secondary antibodies (Jackson Immunoresearch, West Grove, Pa.). Alexa Fluor 647 signal was measured by flow cytometry (BD Fortessa X-14, BD Biosciences, San Jose, Calif.). EC50 values were calculated by curve fitting signal generated from antibodies binding to over-expressing cells over background fluorescence generated from HEK293 parental cells in Graphpad Prism (Graphpad Software, La Jolla, Calif.).

cynomolgus TREM1 = biological target: T2, cynomolgus TREM1; assay: flow cytometry on HEK293 cells over-expressing cynomolgus TREM-1
Procedure: Titrations of indicated unconjugated antibodies were incubated with these cells within a range of 0 ug/ml to 30 ug/ml in a 1:4 or 1:5 dilution range across 8 points. […] EC50 values were calculated by curve fitting signal generated from antibodies binding to over-expressing cells over background fluorescence generated from HEK293 parental cells in Graphpad Prism (Graphpad Software).

mouse TREM1 [3] = biological target: T1, mouse TREM1; assay: in vivo receptor occupancy, flow cytometry of tumor cells
Procedure: CT26 (colon adenocarcinoma), LL/2 (lung adenocarcinoma), MC38 (colon adenocarcinoma), and RENCA (renal cell carcinoma) were harvested using StemPro Accutase Dissociation reagent (Gibco Corporation), washed in PBS and subcutaneously injected to female C57BL/6 (Jackson Laboratories) or BALB/c (Taconic Biosciences) mice at a dose between 8×10⁵-1×10⁶ cells in the right ventral flank. […] Antibody treatments were 15 mg/kg for both arms and mice were treated twice at the indicated time points. 48 hr after the second dose, mice were euthanized and the tumor and blood were harvested for immune population analysis and expression of TREM1. Immune population and expression analyses were performed by flow cytometry (BD Fortessa X-14, BD Biosciences).

Row | Binder | binding result (mouse TREM1 [1]) | binding result (mouse TREM1 [2]) | also measured
1 | Pi-9772 (antibody, mouse IgG2a, kappa, V domains shown, Anti-mouse TREM1 mAb) VH: EVQLVESGGGLVQPGGSLRLSCAASGFDLSYSSMHWVRQAPGKGLEWVAYISPYSGYTSYADSVKGRFTISADTSKNTAYLQMNSLRAEDTAVYYCARHGSWSYGFSSGFDYWGQGTLVTVSS VL: DIQMTQSPSSLSASVGDRVTITCRASQSVSSAVAWYQQKPGKAPKLLIYSASSLYSGVPSRFSGSRSGTDFTLTISSLQPEDFATYYCQQYAYYYPITFGQGTKVEIKR | binds |  | 
2 | afucosylated Pi-9772 (antibody, mouse IgG2a, kappa, V domains shown, afucosylated Fc glycan) VH: EVQLVESGGGLVQPGGSLRLSCAASGFDLSYSSMHWVRQAPGKGLEWVAYISPYSGYTSYADSVKGRFTISADTSKNTAYLQMNSLRAEDTAVYYCARHGSWSYGFSSGFDYWGQGTLVTVSS VL: DIQMTQSPSSLSASVGDRVTITCRASQSVSSAVAWYQQKPGKAPKLLIYSASSLYSGVPSRFSGSRSGTDFTLTISSLQPEDFATYYCQQYAYYYPITFGQGTKVEIKR |  | binds | 
3 | Pi-4928 (antibody, mouse IgG2a, kappa, V domains shown, Anti-mouse TREM1 mAb) VH: QVQLKESGPGLVQPSQTLSLTCTVSGFSITSSNVYWFRQPPGKGLEWMGNIWGDGSTDYNSSLKSRLTLSRDTSKNQVFLKINSLQSEDTATYFCTRSWEYYFDHWGQGVVVTVSS VL: DIVLTQSPALAVSPGQRATLSCRASQSVTLSNVNLMNWYQQKPGQQPKLLIYHASNLASGIPTRFSGSGSGTDFTLTIDPVQADDIAAYYCQQSGESPRTFGGGTKVELKR | binds |  | 
4 | afucosylated Pi-4928 (antibody, mouse IgG2a, kappa, V domains shown, afucosylated Fc glycan) VH: QVQLKESGPGLVQPSQTLSLTCTVSGFSITSSNVYWFRQPPGKGLEWMGNIWGDGSTDYNSSLKSRLTLSRDTSKNQVFLKINSLQSEDTATYFCTRSWEYYFDHWGQGVVVTVSS VL: DIVLTQSPALAVSPGQRATLSCRASQSVTLSNVNLMNWYQQKPGQQPKLLIYHASNLASGIPTRFSGSGSGTDFTLTIDPVQADDIAAYYCQQSGESPRTFGGGTKVELKR |  | binds | 
5 | Pi-8421 (antibody, V domains shown) VH: EVQLVESGGGLVQPGGSLRLSCAASGFDISYSSIHWVRQAPGKGLEWVASIYSSYGSTYYADSVKGRFTISADTSKNTAYLQMNSLRAEDTAVYYCARYYYSHAGWYVSGYWPAIDYWGQGTLVTVSS VL: DIQMTQSPSSLSASVGDRVTITCRASQSVSSAVAWYQQKPGKAPKLLIYSASSLYSGVPSRFSGSRSGTDFTLTISSLQPEDFATYYCQQSSYSLITFGQGTKVEIK |  |  | binding result (cynomolgus TREM1): no binding (tested: titrated within 0 ug/ml to 30 ug/ml)
6 | Pi-9067L (antibody, mouse IgG2a, kappa, V domains shown, Anti-mouse TREM1; also called WT Pi-9067L; fucosylated PI-9067L) VH: EVQLVESGGGLVQPGGSLRLSCAASGFDIYSYSIHWVRQAPGKGLEWVAYIYPSYGYTSYADSVKGRFTISADTSKNTAYLQMNSLRAEDTAVYYCARGAVAALDYWGQGTLVTVSS VL: DIQMTQSPSSLSASVGDRVTITCRASQSVSSAVAWYQQKPGKAPKLLIYSASSLYSGVPSRFSGSRSGTDFTLTISSLQPEDFATYYCQQYGVSGYSLITFGQGTKVEIKR | binds |  | 
7 | Pi-9069L (antibody, mouse IgG2a, kappa, V domains shown) VH: EVQLVESGGGLVQPGGSLRLSCAASGFDLYSSYIHWVRQAPGKGLEWVASIYPSYGYTYYADSVKGRFTISADTSKNTAYLQMNSLRAEDTAVYYCARSHSYVHGAMDYWGQGTLVTVSS VL: DIQMTQSPSSLSASVGDRVTITCRASQSVSSAVAWYQQKPGKAPKLLIYSASSLYSGVPSRFSGSRSGTDFTLTISSLQPEDFATYYCQQYWWVPAAPITFGQGTKVEIKR |  |  | binding result (mouse TREM1 [3]): binds
8 | afucosylated Pi-9067L (antibody, mouse IgG2a, kappa, V domains shown, afucosylated Fc glycan, Same polypeptides as Pi-9067L, afucosylated; also called Afuc-Pi-9067L; Afuc-PI-9067L) VH: EVQLVESGGGLVQPGGSLRLSCAASGFDIYSYSIHWVRQAPGKGLEWVAYIYPSYGYTSYADSVKGRFTISADTSKNTAYLQMNSLRAEDTAVYYCARGAVAALDYWGQGTLVTVSS VL: DIQMTQSPSSLSASVGDRVTITCRASQSVSSAVAWYQQKPGKAPKLLIYSASSLYSGVPSRFSGSRSGTDFTLTISSLQPEDFATYYCQQYGVSGYSLITFGQGTKVEIKR |  | binds | 
